Measurements reported in paper PMC5913134, “The IL-33-PIN1-IRAK-M axis is critical for type 2 immunity in IL-33-induced allergic airway inflammation” (Nature Communications, 2018).

Columns and labels:
[1] = test system: CD11c^+ CD11b^+ CD205^+ cells; test: Flow analysis of lung CD11c+ dendritic cells after IL-33 challenge; type: in vivo, mouse; conditions: for change in CD11c^+ CD11b^+ CD205^+ cells: IL-33, n = 3
Description: (§1) Male mice in each group, 3-5 weeks old were anesthetized using Isoflurane. The mice were treated intranasal with 200ng/mice/day for four continues days. By the fifth day the mice were killed by CO2 suffocation, and bronchial alveolar lavage fluid (BALF) was extracted using PBS. The lungs were extracted and fixed using 10% para formaldehyde. Immunofluresence of slide sections was performed. Slides were analyzed using anti-PIN1 antibodies and anti-IRAK-M antibodies or IgG as control and were counterstained using DAPI. In some cases, cells obtained from BALF were cytospined and the cells were fixed and stained in the same manner. For staining of the cells, Diff-Quick (Diff-Quik) Staining Protocol were used. All animal work was carried out in compliance with the ethical regulations approved by the Animal Care Committee, Beth Israel Deaconess Medical Center, Boston, MA, USA. The permission was granted to perform animal experiments by the Institutional Animal Care and Use Committee at Beth Israel Deaconess Medical Center, Boston, MA, USA.
Lungs were digested using Kollagenase D and dispase and the dendritic cells populations (CD11c^+ CD205^+ CD11b^+) were determined by staining the cells using the following antibodies: PE anti mouse CD11c (catalog number 117307), APC anti mouse CD205 (catalog number 138205), FITC anti mouse CD11b (catalog number 101205). For co stimulatory protein expression, FITC anti mouse CD40 (catalog number 124607), FITC anti mouse CD80 (catalog number 104705), FITC anti mouse CD86 (catalog number 105005) were used. For T cell (CD3^+ CD4^+) population isolation, the cells were stained with APC anti mouse CD3^+ (catalog number 100235) FITC anti mouse CD4^+ (catalog number 100405) before the cells were cell sorted. Human BALF samples were stained with FITC anti human CD15 (catalog number 301903) or FITC anti human CD205 (catalog number 342206). All antibodies were purchased from Biolegend and diluted according to manufacture instruction (1:100 dilution). Cells were analyzed using LSRII flow cytometer and FlowJo software. For cytospin the cells were spun onto glass slides, air dried and fixed using 4%PFA and stained with the indicated antibodies.

[2] = test system: WT, PIN1 KO and IRAK-M KO mice; test: IL-33-induced airway inflammation in mice; type: in vivo, mouse; conditions: for BALF TH2 cytokines (IL-4, -5 and -13): IL-33 intranasal
Description: as §1

IRAK-M = IRAK-M nuclear localization in DC2.4 cells; type: cell-based, C57BL/6; conditions: DC2.4 cells, after IL-33 induction
Description: Suppl em enta ry Figur e 3. a DAPI IR AK-M Pin1 Mergeb […]
Supplementary Figure 3. Pin1 targets IRAK-M and promotes its nuclear translocation upon IL-33 induction.
(a) Immunostaining for IRAK-M and Pin1 in DC2.4 cells before and after IL-33 treatment. ( b) DC2.4 cells were treated with IL-33 and subjected to nuclear/cytoplasmic fractionation, followed by Western blot for IRAK-M with actin as a cytoplasmic marker and Fox1 as a nuclear marker. C- cytoplasmic; N- Nuclear.
(c) Cytospin slides from BALF of the treated WT mice as indicated, were co stained for DC205 and IRAK-M.
(d) IRAK-M or its mutants S110E or P111A were stably expressed in DC2.4 cells and their localization and Pin1 localization were monitored by immunostaining. (e) GFP-IRAK-M were expressed in Pin1 KO MEFs either with or without RFP-Pin1 as indicated, and their localization was monitored. Scale = 50 µm.
(also on this page, place not known: Control +IL-33: b DAPIe MergeGFP RFP GFP- GFP-IRAK-M/ RFP MergeIRAK-M Pin1DAPI ControlIL-33 Mergec Supplementary Figure IRAK-M IRAK-M (b) IL-33 IRAK-M IRAK-M Pin1) […]

[3] = test system: naive CD4^+ cells co-cultured with BMDCs; test: BMDC / naive CD4+ T cell co-culture TH2 polarization, IL-5 and IL-13 secretion; type: cell-based, C57 B6 mice; conditions: WT BMDC + naive CD4+ T cells, IL-33 50 ng/ml, 5 days
Description: Supplementary Figure 7. IRAK-M KO or Pin1 KO derived bone marrow dendritic cells attenuates Naïve TH2 cell differentiation upon IL-33 induction in co culture experiment. Naïve CD4+ T cells isolated from C57 B6 mice were cultured with or without IL-33 (50ng/ml) and BMDCs isolated from WT, IRAK-M KO (a) or Pin1 KO mice (b) in a 1:5 ratio for 5 days with no antigen being added. In some cases as indicated 5 µM of ATRA was added to the medium two days prior to T cell co culturing and during the experiment. Supernatants were analyzed for cytokines on day 5. The data were analyzed by a Student's two-tailed t test and the values are reported as mean ± standard errors of the means (SEM). *- statistical significance (P<0.05), **- significance (P<0.01).

B1: IL-33: Recombinant mouse IL-33 purchased from BioLegend (protein, UniProt Q8BVZ5 1-266, looked up)
Interleukin-33: MRPRMKYSNSKISPAKFSSTAGEALVPPCKIRRSQQKTKEFCHVYCMRLRSGLTIRKETSYFRKEPTKRYSLKSGTKHEENFSAYPRDSRKRSLLGSIQAFAASVDTLSIQGTSLLTQSPASLSTYNDQSVSFVLENGCYVINVDDSGKDQEQDQVLLRYYESPCPASQSGDGVDGKKLMVNMSPIKDTDIWLHANDKDYSVELQRGDVSPPEQAFFVLHKKSSDFVSFECKNLPGTYIGVKDNQLALVEEKDESCNNIMFKLSKI
For B1, the “change in CD11c^+ CD11b^+ CD205^+ cells” value ([1]; IRAK-M KO mice) was “non significant (NS) increase”, the “CD40 and CD80 overexpression in lung CD11c^+ cells” value ([1]; IRAK-M KO mice, IL-33 treated, n=3) was “attenuated” and the “change in CD11c^+ CD11b^+ CD205^+ cells” value ([1]; PIN1 KO mice) was “more moderate increase”. For the same molecule, the “CD40 and CD80 expression in lung CD11c^+ cells” value ([1]; WT mice, IL-33 treated, n=3) was “elevated”, the “induction of CD11c^+ CD11b^+ CD205^+ cells” value ([1]; WT mice, IL-33 vs PBS, n = 3, P < 0.05) was 3 fold and the “response (infiltrates, cell counts)” value ([2]; PIN1 KO mice, intranasal 200 ng/mice/day, 4 days) was “very mild responses”. For the same molecule, the “BALF TH2 cytokines (IL-4, -5 and -13)” value ([2]; PIN1 KO or IRAK-M KO mice) was “dramatically attenuated”, the “BALF TH2 cytokines (IL-4, -5, -6 and -13)” value ([2]; PIN1 KO vs WT mice, IL-33 intranasal 200 ng/mice/day, 4 days) was “drastically lower” and the “BALF TH2 cytokines (IL-4, -5 and -13)” value ([2]; WT mice) was “high levels of TH2 cytokines”. For the same molecule, the lung inflammation ([2]; WT mice, intranasal 200 ng/mice/day, 4 days) was “moderate to severe inflammation and high levels of infiltrating cells, especially eosinophils”, the “lung inflammation and bronchial remodeling” value ([2]; WT mice, intranasal IL-33) was “severe lung inflammation and bronchial remodeling” and the “IRAK-M expression in lung cells” value ([2]; WT mice, intranasal IL-33, immunostaining) was “dramatically increased IRAK-M expression”. The “lung expression of Il6, Csf3, Cxcl2 and Ccl5” value ([2]; WT mice, whole lung tissue, qRT-PCR) was “upregulated”, the IRAK-M nuclear localization (IRAK-M) was “also evident in the nucleus” and the “IL-5 and IL-13 secretion” value [3] was “high levels of IL-5 and -13”.
